According to publication PMC9706453, “Abscisic acid-responsive transcription factors PavDof2/6/15 mediate fruit softening in sweet cherry”:

Columns and labels:
Assay in all cases: EMSA; Light Shift Chemiluminescent EMSA Kit (Beyotime); buffer, salt, pH and temperature not stated
Settings in all cases: protein: recombinant; tags: His (pET-30a(+)); label: biotin
PavDof15 = target: T1, PavDof15 (Prunus avium (sweet cherry), UniProt A0A6P5S8Z2 1-327)
T1 sequence: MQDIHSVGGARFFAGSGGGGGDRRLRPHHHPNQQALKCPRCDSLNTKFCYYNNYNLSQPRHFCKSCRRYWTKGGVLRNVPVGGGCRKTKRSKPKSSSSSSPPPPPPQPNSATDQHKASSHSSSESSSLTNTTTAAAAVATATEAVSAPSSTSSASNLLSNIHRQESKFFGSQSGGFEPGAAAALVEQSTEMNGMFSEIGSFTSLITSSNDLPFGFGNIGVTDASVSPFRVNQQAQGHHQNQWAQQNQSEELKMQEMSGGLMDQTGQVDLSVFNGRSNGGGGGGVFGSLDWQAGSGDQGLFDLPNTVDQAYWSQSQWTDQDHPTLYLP

PavDof2 = target: T2, PavDof2 (Prunus avium (sweet cherry), UniProt A0A6P5T378 1-263)
T2 sequence: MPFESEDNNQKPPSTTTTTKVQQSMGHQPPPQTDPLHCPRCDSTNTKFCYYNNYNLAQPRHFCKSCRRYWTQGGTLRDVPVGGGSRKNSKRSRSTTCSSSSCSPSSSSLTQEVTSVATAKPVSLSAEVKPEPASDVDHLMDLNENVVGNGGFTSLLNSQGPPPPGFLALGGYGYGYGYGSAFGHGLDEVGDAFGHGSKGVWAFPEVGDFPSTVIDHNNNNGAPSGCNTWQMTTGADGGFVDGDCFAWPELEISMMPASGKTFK

PavDof6 = target: T3, PavDof6 (Prunus avium (sweet cherry), UniProt A0A6P5RUY3 1-310)
T3 sequence: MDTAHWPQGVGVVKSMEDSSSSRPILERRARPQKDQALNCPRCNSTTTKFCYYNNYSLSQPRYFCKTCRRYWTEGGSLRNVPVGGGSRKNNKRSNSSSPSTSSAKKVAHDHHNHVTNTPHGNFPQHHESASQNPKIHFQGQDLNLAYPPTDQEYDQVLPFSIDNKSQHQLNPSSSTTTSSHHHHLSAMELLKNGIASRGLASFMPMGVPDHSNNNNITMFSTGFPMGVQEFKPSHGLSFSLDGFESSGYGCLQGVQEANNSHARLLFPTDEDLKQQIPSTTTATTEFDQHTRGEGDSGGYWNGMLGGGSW

Measured: binding result

B1: PavPL18 promoter probe (dsDNA)
DNA 1: CATAAAAAGAAATAAAATGAAAAGAAAAGTGA
DNA 2: TCACTTTTCTTTTCATTTTATTTCTTTTTATG
binds: all assays above

B2: PavQRT3 promoter probe (dsDNA)
DNA 1: TTGAAAAGTTAGGAAAAAAGTTT
DNA 2: AAACTTTTTTCCTAACTTTTCAA
binds: all assays above

B3: PavNCED1 promoter probe (Dof site) (dsDNA)
DNA 1: CTCAAAAGCTAGTTATATGGAAAAAGGGA
DNA 2: TCCCTTTTTCCATATAACTAGCTTTTGAG
binds: all assays above

B4: PavPME44 promoter probe (dsDNA)
DNA 1: CTGCTTTTCTGAAAATTAAAGCAGTTTGGAGAAAAGTCC
DNA 2: GGACTTTTCTCCAAACTGCTTTAATTTTCAGAAAAGCAG
binds: all assays above

B5: PavXTH31 promoter probe (dsDNA)
DNA 1: TGCTTTTTTTTTTTTAAAGGATT
DNA 2: AATCCTTTAAAAAAAAAAAAGCA
binds: all assays above

B6: PavXTH26 promoter probe (dsDNA)
DNA 1: AACATTCTTTTTGTAAATCAAGTAGTTAAAAGCATTTAC
DNA 2: GTAAATGCTTTTAACTACTTGATTTACAAAAAGAATGTT
binds: all assays above
